Reference: patent US12012453B2, “Methods for treating late-stage small cell lung cancer by administering a human anti-PD-L1 antibody, an etoposide and a platinum-based therapeutic” (ASTRAZENECA AB, priority 2019, dated 2024)

Key:
[1] = test system: patients with platinum-refractory disease; details: second-line; cited from earlier work
patients with ES-SCLC [2] = assay: CASPIAN phase 3 trial: overall survival and progression-free survival, intention-to-treat population; format: in vivo, human; details: ITT
Procedure: (§1) Eligible patients included adults with histologically or cytologically documented ES-SCLC and were treatment naïve. […] Patients with brain metastases were eligible provided they were asymptomatic or treated and stable off steroids and anticonvulsants for at least 1 month prior to study entry.
Randomization was stratified according to planned platinum agent.
Survival was assessed every 2 months following treatment discontinuation.
The primary endpoint was OS (time from randomization to death from any cause). Secondary endpoints included progression-free survival (PFS; time from randomization to the date of objective disease progression or death from any cause in the absence of progression), objective response rate (ORR), OS at 18 and 24 months, PFS at 6 and 12 months, and safety. PFS and ORR were assessed according to RECIST v1.1.

patients with ES-SCLC [3] = assay: CASPIAN phase 3 trial: tumor response per RECIST v1.1 (objective response, duration of response); format: in vivo, human; details: for Odds ratio (95% CI) for ORR versus EP: logistic regression adjusted for platinum agent
Procedure: as §1
Randomization was stratified according to planned platinum agent. […]
The primary endpoint was OS (time from randomization to death from any cause). […] PFS and ORR were assessed according to RECIST v1.1.

patients with ES-SCLC [4] = details: in vivo
Procedure: (§2) Patients were randomized in a 1:1:1 ratio to receive durvalumab 1500 mg plus EP, durvalumab 1500 mg plus tremelimumab 75 mg plus EP, or EP (FIG. 1). Across all three study arms, chemotherapy consisted of etoposide 80-100 mg/m^2 (administered on days 1 to 3 of each cycle), with either carboplatin area under the curve 5-6 mg/mL/min or cisplatin 75-80 mg/m^2 (administered on day 1 of each cycle). Randomization was stratified according to planned platinum agent. Patients in the immunotherapy arms received up to 4 cycles of EP plus durvalumab every 3 weeks (q3w) followed by maintenance durvalumab 1500 mg every 4 weeks (q4w). Patients in the EP arm could receive an additional 2 cycles of EP (up to 6 cycles total) and prophylactic cranial irradiation (PCI). Patients continued treatment until Response Evaluation Criteria in Solid Tumor version 1.1 (RECIST v1.1)-defined disease progression, unacceptable toxicity, or other discontinuation criteria were met. Continuation of study treatment following disease progression was permitted if there was evidence of clinical benefit (FIG. 1). In-study crossover from the EP to the immunotherapy plus EP arms was not allowed.
(§3) Tumor imaging was performed every 6 weeks for the first 12 weeks, and every 8 weeks thereafter, until confirmed objective disease progression. Survival was assessed every 2 months following treatment discontinuation.
(§4) All patients who received at least one dose of study treatment were included in safety analyses.

patients with ES-SCLC [5] = assay: CASPIAN phase 3 trial: treatment-related adverse events (safety population)
Procedure: as §2, §3, §4

[6] = final analysis, Kaplan-Meier, listed as D+EP

Molecule: CC[C@@]1(O)C(=O)OCc2c1cc1n(c2=O)Cc2cc3c(CN(C)C)c(O)ccc3nc2-1 [topotecan]
- one-year survival rate [1]: 9%
- response rates [1]: 5%

Molecule: Durvalumab + EP
- patients who had died (patients with ES-SCLC [2]; final analysis data cutoff): 78%
- patients who had disease progression or died (patients with ES-SCLC [2]; final data cutoff): 87%
- 12-month PFS rate (patients with ES-SCLC [2]; final/updated analysis): 17.9%
- 24-month PFS rate (patients with ES-SCLC [2]; final/updated analysis): 11.0%
- HR for PFS versus EP (patients with ES-SCLC [2]; final/updated analysis): 0.80
- Median OS (patients with ES-SCLC [2]; final/updated analysis): 12.9 months
- Median PFS (patients with ES-SCLC [2]; final/updated analysis): 5.1 months
- HR for OS versus EP (patients with ES-SCLC [2]; final/updated analysis, Cox model stratified by platinum agent): 0.75
- 24-month OS rate (patients with ES-SCLC [2]; final/updated analysis, Kaplan-Meier): 22.2%
- Best objective response: Complete response (patients with ES-SCLC [3]; final analysis): 7 (3) n (%)
- Best objective response: Not evaluable (patients with ES-SCLC [3]; final analysis): 3 (1) n (%)
- Best objective response: Partial response (patients with ES-SCLC [3]; final analysis): 175 (65) n (%)
- Best objective response: Progressive disease (patients with ES-SCLC [3]; final analysis): 32 (12) n (%)
- Best objective response: Stable disease for at least 6 weeks (patients with ES-SCLC [3]; final analysis): 20 (7) n (%)
- Best objective response: Unconfirmed response (patients with ES-SCLC [3]; final analysis): 31 (12) n (%)
- Best reduction from baseline in target lesion size, Mean (SD) (patients with ES-SCLC [3]; final analysis): −57.0 (24.59) %
- Best reduction from baseline in target lesion size, Median (IQR) (patients with ES-SCLC [3]; final analysis): −60.4 (−72.9, −44.3) %
- Odds ratio vs EP (95% CI), confirmed objective response (patients with ES-SCLC [3]; final analysis): 1.53 (1.08-2.18)
- Odds ratio vs EP (95% CI), unconfirmed objective response (patients with ES-SCLC [3]; final analysis): 1.61 (1.09-2.40)
- Remaining in response at 6 months (95% CI) (patients with ES-SCLC [3]; final analysis, Kaplan-Meier): 39.3 (32.2-46.3) %
- Remaining in response at 12 months (95% CI) (patients with ES-SCLC [3]; final analysis, Kaplan-Meier): 23.2 (17.3-29.7) %
- Remaining in response at 24 months (95% CI) (patients with ES-SCLC [3]; final analysis, Kaplan-Meier): 13.5 (8.7-19.3) %
- Remaining in response at 12 months (95% CI) (patients with ES-SCLC [3]; [6]): 23.2%
- Remaining in response at 24 months (95% CI) (patients with ES-SCLC [3]; [6]): 13.5%
- Median (95% CI) duration of response (patients with ES-SCLC [3]; final analysis, confirmed responders, Kaplan-Meier): 5.1 (4.9-5.3) months
- Best reduction from baseline in target lesion size, Median (IQR) (patients with ES-SCLC [3]; final analysis, listed as D+EP): −60.4%
- Odds ratio vs EP (95% CI), confirmed objective response (patients with ES-SCLC [3]; final analysis, listed as D+EP): 1.53
- confirmed objective response (patients with ES-SCLC [3]; final analysis, post hoc): 68%
- Best objective response: Not evaluable (patients with ES-SCLC [3]; interim analysis): 3 (1.1) n (%)
- Best objective response: Progressive disease (patients with ES-SCLC [3]; interim analysis): 32 (11.9) n (%)
- Best objective response: Stable disease ≥6 weeks (patients with ES-SCLC [3]; interim analysis): 20 (7.5) n (%)
- Remaining in response at 6 months (patients with ES-SCLC [3]; interim analysis): 39.3%
- Remaining in response at 12 months (patients with ES-SCLC [3]; interim analysis): 22.7%
- confirmed ORR (patients with ES-SCLC [3]; interim analysis): 67.9%
- confirmed complete response (patients with ES-SCLC [3]; interim analysis): 2.2%
- ORR (confirmed) (patients with ES-SCLC [3]; interim analysis, RECIST v1.1): 182 (67.9) n (%)
- Best objective response: Complete response (patients with ES-SCLC [3]; interim analysis, confirmed): 6 (2.2) n (%)
- Best objective response: Partial response (patients with ES-SCLC [3]; interim analysis, confirmed): 176 (65.7) n (%)
- Median DoR (95% CI) (patients with ES-SCLC [3]; interim analysis, confirmed responders): 5.1 (4.9-5.3) months
- Median DoR (95% CI) (patients with ES-SCLC [3]; interim analysis, confirmed responders, listed as durvalumab plus EP): 5.1 months
- Odds ratio (95% CI) for ORR versus EP (patients with ES-SCLC [3]; interim analysis): 1.56 (1.095-2.218)
- Odds ratio (95% CI) for ORR versus EP (patients with ES-SCLC [3]; interim analysis, listed as durvalumab plus EP): 1.56
- unconfirmed and confirmed objective response rates, amount higher versus EP (patients with ES-SCLC [3]; updated analysis): approximately 10%
- Any treatment-related event leading to death (patients with ES-SCLC [4]): 6 (2) n (%)
- Alopecia, treatment-related (patients with ES-SCLC [5]; Any grade): 75 (28) n (%)
- Anaemia, treatment-related (patients with ES-SCLC [5]; Any grade): 85 (32) n (%)
- Any treatment-related event (patients with ES-SCLC [5]; Any grade): 237 (89) n (%)
- Any treatment-related event leading to discontinuation (patients with ES-SCLC [5]; Any grade): 16 (6) n (%)
- Any treatment-related serious event (patients with ES-SCLC [5]; Any grade): 35 (13) n (%)
- Asthenia, treatment-related (patients with ES-SCLC [5]; Any grade): 27 (10) n (%)
- Constipation, treatment-related (patients with ES-SCLC [5]; Any grade): 23 (9) n (%)
- Decreased appetite, treatment-related (patients with ES-SCLC [5]; Any grade): 33 (12) n (%)
- Diarrhoea, treatment-related (patients with ES-SCLC [5]; Any grade): 17 (6) n (%)
- Fatigue, treatment-related (patients with ES-SCLC [5]; Any grade): 30 (11) n (%)
- Febrile neutropenia, treatment-related (patients with ES-SCLC [5]; Any grade): 15 (6) n (%)
- Hyperthyroidism, treatment-related (patients with ES-SCLC [5]; Any grade): 22 (8) n (%)
- Hypothyroidism, treatment-related (patients with ES-SCLC [5]; Any grade): 23 (9) n (%)
- Leucopenia, treatment-related (patients with ES-SCLC [5]; Any grade): 36 (14) n (%)
- Lipase increased, treatment-related (patients with ES-SCLC [5]; Any grade): 10 (4) n (%)
- Nausea, treatment-related (patients with ES-SCLC [5]; Any grade): 74 (28) n (%)
- Neutropenia, treatment-related (patients with ES-SCLC [5]; Any grade): 104 (39) n (%)
- Neutrophil count decreased, treatment-related (patients with ES-SCLC [5]; Any grade): 24 (9) n (%)
- Paraesthesia, treatment-related (patients with ES-SCLC [5]; Any grade): 14 (5) n (%)
- Platelet count decreased, treatment-related (patients with ES-SCLC [5]; Any grade): 14 (5) n (%)
- Pruritus, treatment-related (patients with ES-SCLC [5]; Any grade): 11 (4) n (%)
- Rash, treatment-related (patients with ES-SCLC [5]; Any grade): 10 (4) n (%)
- Thrombocytopenia, treatment-related (patients with ES-SCLC [5]; Any grade): 37 (14) n (%)
- Vomiting, treatment-related (patients with ES-SCLC [5]; Any grade): 32 (12) n (%)
- White blood cell count decreased, treatment-related (patients with ES-SCLC [5]; Any grade): 12 (5) n (%)
- Alopecia, treatment-related (patients with ES-SCLC [5]; Grade 3 or 4): 3 (1) n (%)
- Anaemia, treatment-related (patients with ES-SCLC [5]; Grade 3 or 4): 21 (8) n (%)
- Any treatment-related event (patients with ES-SCLC [5]; Grade 3 or 4): 121 (46) n (%)
- Any treatment-related event leading to discontinuation (patients with ES-SCLC [5]; Grade 3 or 4): 3 (1) n (%)
- Any treatment-related serious event (patients with ES-SCLC [5]; Grade 3 or 4): 25 (9) n (%)
- Asthenia, treatment-related (patients with ES-SCLC [5]; Grade 3 or 4): 2 (1) n (%)
- Constipation, treatment-related (patients with ES-SCLC [5]; Grade 3 or 4): 0 n (%)
- Decreased appetite, treatment-related (patients with ES-SCLC [5]; Grade 3 or 4): 1 (<1) n (%)
- Diarrhoea, treatment-related (patients with ES-SCLC [5]; Grade 3 or 4): 2 (1) n (%)
- Fatigue, treatment-related (patients with ES-SCLC [5]; Grade 3 or 4): 2 (1) n (%)
- Febrile neutropenia, treatment-related (patients with ES-SCLC [5]; Grade 3 or 4): 13 (5) n (%)
- Hyperthyroidism, treatment-related (patients with ES-SCLC [5]; Grade 3 or 4): 0 n (%)
- Hypothyroidism, treatment-related (patients with ES-SCLC [5]; Grade 3 or 4): 0 n (%)
- Leucopenia, treatment-related (patients with ES-SCLC [5]; Grade 3 or 4): 15 (6) n (%)
- Lipase increased, treatment-related (patients with ES-SCLC [5]; Grade 3 or 4): 8 (3) n (%)
- Nausea, treatment-related (patients with ES-SCLC [5]; Grade 3 or 4): 0 n (%)
- Neutropenia, treatment-related (patients with ES-SCLC [5]; Grade 3 or 4): 61 (23) n (%)
- Neutrophil count decreased, treatment-related (patients with ES-SCLC [5]; Grade 3 or 4): 16 (6) n (%)
- Paraesthesia, treatment-related (patients with ES-SCLC [5]; Grade 3 or 4): 0 n (%)
- Platelet count decreased, treatment-related (patients with ES-SCLC [5]; Grade 3 or 4): 4 (2) n (%)
- Pruritus, treatment-related (patients with ES-SCLC [5]; Grade 3 or 4): 0 n (%)
- Rash, treatment-related (patients with ES-SCLC [5]; Grade 3 or 4): 0 n (%)
- Thrombocytopenia, treatment-related (patients with ES-SCLC [5]; Grade 3 or 4): 14 (5) n (%)
- Vomiting, treatment-related (patients with ES-SCLC [5]; Grade 3 or 4): 0 n (%)
- White blood cell count decreased, treatment-related (patients with ES-SCLC [5]; Grade 3 or 4): 4 (2) n (%)
